In the supplement of paper PMC9233669:
Variants at the floor of the assay were thinned out.

Experiments:
biotinyl-Ile-oxazolone = test: self-aminoacylation, catalytic enhancement (BIO) (fold over background); higher = more active; k-Seq, kA / k0A0; sequences stand for … in GGGAAUGGAUCCACAUCUACGAAUUC…UUCACUGCAGACUUGACGAAGCUG
In short: (§1)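 Mutagenized RNA pools (0.43 μM; 21-nt variable region) were treated with 2–1250 μM of each biotinyl-aminoacyl-oxazolone. Conditions were 50 μL HEPES/NaCl/KCl/MgCl2/CaCl2 buffer, 5% acetonitrile, pH 6.9–7.0, room temperature, 90 minutes. Catalytic enhancement, the median kA relative to the uncatalyzed rate, was derived from streptavidin capture, qPCR and Illumina sequencing.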

biotinyl-Met-oxazolone = test: self-aminoacylation, catalytic enhancement (BMO) (fold over background); higher = more active; k-Seq, kA / k0A0; sequences stand for … in GGGAAUGGAUCCACAUCUACGAAUUC…UUCACUGCAGACUUGACGAAGCUG
In short: as §1

biotinyl-Leu-oxazolone = test: self-aminoacylation, catalytic enhancement (BLO) (fold over background); higher = more active; k-Seq, kA / k0A0; sequences stand for … in GGGAAUGGAUCCACAUCUACGAAUUC…UUCACUGCAGACUUGACGAAGCUG
In short: as §1

biotinyl-Val-oxazolone = test: self-aminoacylation, catalytic enhancement (BVO) (fold over background); higher = more active; k-Seq, kA / k0A0; sequences stand for … in GGGAAUGGAUCCACAUCUACGAAUUC…UUCACUGCAGACUUGACGAAGCUG
In short: as §1

biotinyl-Trp-oxazolone = test: self-aminoacylation, catalytic enhancement (BWO) (fold over background); higher = more active; k-Seq, kA / k0A0; sequences stand for … in GGGAAUGGAUCCACAUCUACGAAUUC…UUCACUGCAGACUUGACGAAGCUG
In short: as §1

biotinyl-Phe-oxazolone = test: self-aminoacylation, catalytic enhancement (BFO) (fold over background); higher = more active; k-Seq, kA / k0A0; sequences stand for … in GGGAAUGGAUCCACAUCUACGAAUUC…UUCACUGCAGACUUGACGAAGCUG
In short: as §1

Row | Sequence | self-aminoacylation (biotinyl-Ile-oxazolone) | self-aminoacylation (biotinyl-Met-oxazolone) | self-aminoacylation (biotinyl-Leu-oxazolone) | self-aminoacylation (biotinyl-Val-oxazolone) | self-aminoacylation (biotinyl-Trp-oxazolone) | self-aminoacylation (biotinyl-Phe-oxazolone)
1 | GCACACUUUAAGCAAUCGGUC [Fam1B.1 aminoacylation ribozyme variant] | 1.3 | 1.04 | 1.11 | 1.17 | 1.44 | 1.39
2 | AAGUUCGCUAAUAGUCGGAAG [Fam3.1 aminoacylation ribozyme variant] | 1.2 | 0.621 | 1.17 | 0.743 | 1.07 | 2.48
3 | AUUCAUCUAGGUCAUCGGGUC [Fam2.2 aminoacylation ribozyme variant] | 1.07 | 1.21 | 1.22 | 1.28 | 1.02 | 2.17
4 | AUUCACAUAGGUCAUAGGGUG [Fam2.2 aminoacylation ribozyme variant] | 1.55 | 2.17 | 2.3 | 1.54 | 1.66 | 2.85
5 | AUUAGUCUGGUCAUCGAGUGA [Fam2.1 aminoacylation ribozyme variant] | 3.35 | 3.43 | 4.42 | 2.62 | 3.94 | 13
6 | CUACUUAAAACAAUCGCUCUG [Fam1A.1 aminoacylation ribozyme variant] | 0.623 | 0.706 | 0.481 | 0.727 | 0.462 | 0.52
7 | AUUCAACUAGGGCAUCGGGUG [Fam2.2 aminoacylation ribozyme variant] | 2.7 | 3.16 | 4.3 | 2.88 | 2.99 | 22.4
8 | AAGUUUUCUAAUAGUCGCAGG [Fam3.1 aminoacylation ribozyme variant] | 1.59 | 1.6 | 1.55 | 1.52 | 2.19 | 3.74
9 | CUACGUCAAACAAUCGGUCUC [Fam1A.1 aminoacylation ribozyme variant] | 0.998 | 1.09 | 0.765 | 1.04 | 1.32 | 1.24
10 | AUUCACCUAGGUCUUCGGUUG [Fam2.2 aminoacylation ribozyme variant] | 1.55 | 1.76 | 1.75 | 1.41 | 1.72 | 9.48
11 | AUGUUUGCUAAUAGUCGCCAG [Fam3.1 aminoacylation ribozyme variant] | 1.26 | 1.37 | 1.51 | 1.29 | 1.76 | 1.53
12 | AUUACCCUGUUCAUCGUGUGA [Fam2.1 aminoacylation ribozyme variant] | 3.1 | 6.29 | 6.24 | 3.04 | 8.71 | 43.7
13 | AAGUUUCCUAAUAGUCGUAAG [Fam3.1 aminoacylation ribozyme variant] | 1.2 | 1.18 | 1.07 | 1.07 | 1.27 | 2.58
14 | GUACUUCAAACUAUCGGUCUG [Fam1A.1 aminoacylation ribozyme variant] | 1.38 | 1.29 | 1.14 | 1.26 | 1.46 | 1.78
15 | CCACAAUUCAAGCAAGCGGUC [Fam1B.1 aminoacylation ribozyme variant] | 1.3 | 1.3 | 0.998 | 1.42 | 0.509 | 0.932
16 | AGUCACCUACGUCAUCGGGUG [Fam2.2 aminoacylation ribozyme variant] | 3.49 | 4.95 | 6.83 | 4.21 | 5.27 | 32.4
17 | AUUCACCUAGGUCAUCGGGUA [Fam2.2 aminoacylation ribozyme variant] | 37.2 | 71.8 | 101 | 32 | 49.5 | 605
18 | CCACACGUCAAUCAAUCGGUC [Fam1B.1 aminoacylation ribozyme variant] | 1.05 | 1.09 | 0.966 | 1.1 | 0.926 | 1.24
19 | UAGUUUGCUAAUAGCCGCAAG [Fam3.1 aminoacylation ribozyme variant] | 1.22 | 0.885 | 1.25 | 1.05 | 1.88 | 2.71
20 | AUUACUCUUGUCAUCGAGUGA [Fam2.1 aminoacylation ribozyme variant] | 3.58 | 6.03 | 6.33 | 3.45 | 7.7 | 22
21 | CGACUUCAAACAAUCGGCCUG [Fam1A.1 aminoacylation ribozyme variant] | 3.29 | 3.62 | 6.69 | 4.06 | 95.7 | 277
22 | AAGUUUGCUAAUAAUCGCAUG [Fam3.1 aminoacylation ribozyme variant] | 0.866 | 1.05 | 0.932 | 0.926 | 1.15 | 1.21

Row | Sequence | self-aminoacylation (biotinyl-Ile-oxazolone) | self-aminoacylation (biotinyl-Met-oxazolone) | self-aminoacylation (biotinyl-Leu-oxazolone) | self-aminoacylation (biotinyl-Val-oxazolone) | self-aminoacylation (biotinyl-Trp-oxazolone) | self-aminoacylation (biotinyl-Phe-oxazolone)
23 | AUCCUUCAAACAAUCGGUCUG [Fam1A.1 aminoacylation ribozyme variant] | 0.755 | 0.822 | 0.809 | 0.688 | 3.9 | 4.27
24 | AAGUUCGUUAAUAGUCGCAAG [Fam3.1 aminoacylation ribozyme variant] | 1.93 | 1.77 | 1.94 | 1.53 | 1.56 | 3.09
25 | AAGUUCGCUAAUAGUCGCAAG [Fam3.1 aminoacylation ribozyme variant] | 2.04 | 1.91 | 1.94 | 1.81 | 2.94 | 6.36
26 | CCACACUUCAAGCAUUCGAUC [Fam1B.1 aminoacylation ribozyme variant] | 0.664 | 0.629 | 0.577 | 0.856 | 0.748 | 1.11
27 | GACUUUGCUAAUAGUCGCAAG [Fam3.1 aminoacylation ribozyme variant] | 1.74 | 2.11 | 1.85 | 1.72 | 1.97 | 2.88
28 | AUUCACCUAGGGGAUCGGGUG [Fam2.2 aminoacylation ribozyme variant] | 3.44 | 4.34 | 6.82 | 3.26 | 4.28 | 32
29 | CUCCUUCAUACAAUCGGUCUG [Fam1A.1 aminoacylation ribozyme variant] | 0.652 | 0.609 | 0.771 | 0.664 | 0.794 | 0.839
30 | AACUUUGCUAAUAGUGGCAAG [Fam3.1 aminoacylation ribozyme variant] | 1.07 | 0.764 | 1.44 | 0.919 | 1.11 | 1.37
31 | AUUCACCUAGGUCAUCCGCUG [Fam2.2 aminoacylation ribozyme variant] | 2.23 | 1.73 | 2.54 | 1.89 | 1.25 | 9.5
32 | AUUACCCGGGACAUCGAGUGA [Fam2.1 aminoacylation ribozyme variant] | 4.52 | 10.5 | 11.2 | 5.01 | 12.3 | 80.3
33 | AAGUUUGCUAAUAGUUGGAAG [Fam3.1 aminoacylation ribozyme variant] | 1.29 | 1.38 | 1.21 | 1.25 | 0.896 | 1.47
34 | AUUCAACUAGGUCAUCGGGUA [Fam2.2 aminoacylation ribozyme variant] | 1.78 | 2.01 | 2.16 | 2.19 | 2.89 | 7.29
35 | CUACUUCAAACAACCGGCCUG [Fam1A.1 aminoacylation ribozyme variant] | 1.8 | 2.4 | 1.51 | 1.86 | 1.49 | 2.27
36 | CCUGACUUCAAGCAAUCGGUC [Fam1B.1 aminoacylation ribozyme variant] | 1.22 | 1.17 | 1.63 | 1.35 | 23.1 | 45.6
37 | AAGUUUGAUAAUGGUCGCAAG [Fam3.1 aminoacylation ribozyme variant] | 0.891 | 0.785 | 0.895 | 0.644 | 0.581 | 1.47
38 | AUUGACCUAGGUCAUCGGGCG [Fam2.2 aminoacylation ribozyme variant] | 3.78 | 5.01 | 6 | 4.14 | 4.79 | 15
39 | AUUCUCCUAGGUCAUCGCGUG [Fam2.2 aminoacylation ribozyme variant] | 11.4 | 20.9 | 27.3 | 12.2 | 20.6 | 170
40 | GUUACCCUGGUCAUCGAGGGA [Fam2.1 aminoacylation ribozyme variant] | 3.06 | 5.05 | 4.18 | 2.7 | 5.33 | 4.93
41 | AUUCAACUAGGUCAUCGGGUU [Fam2.2 aminoacylation ribozyme variant] | 1.5 | 1.91 | 1.95 | 1.66 | 1.8 | 4.65
42 | AUUCACUUAGGUCAACGGGUG [Fam2.2 aminoacylation ribozyme variant] | 2.52 | 3.84 | 4.92 | 2.26 | 3.53 | 21.2
43 | UUUCAACUAGGUCAUCGGGUG [Fam2.2 aminoacylation ribozyme variant] | 3.58 | 5.1 | 5.6 | 3.67 | 5.22 | 35.7
